For the experiment, the target named is 158P1D7 receptor on HUVEC cells (unidentified). Briefly: flow cytometry on HUVEC cells; bound ECD detected with anti-158P1D7-PE (MAb M15/X68.2.22 at 1 ug/ml and anti-mouse-PE); by the order of the key, 2.88% is taken as the sample 'HUVEC No ECD' and 6.53% as 'HUVEC 158P1D7 ECD' [panel printed as Fig. 34A].

Take “Recombinant extracellular domain (ECD) of 158P1D7 (amino acids 16-608) (from UniProt Q9H5Y7 16-608)”: the % gated came out at 6.53%.
